Measured values published in PMC7094590.

Molecular target: wild-type HCoV-229E Nsp9 (non-structural protein 9 of human coronavirus 229E) (human coronavirus 229E)
Assay: crystal structure

**Q.** With “wild-type HCoV-229E Nsp9 (non-structural protein 9 of human coronavirus 229E) (natural protein)” as the substance, how does the stoichiometry N read?
**A.** Its stoichiometry N is 2.
